# Test results published in US20220089640A1 (published 2022).
# Numbered stars: 1 amine (or outer) side, 2 acyl side, 3 side chain; on linkers, the order of the positions; unused ones are H or OH. Bridge positions count the residues as written; N and C are the ends. Square brackets hold non-standard residues; d marks the D form. Tyr(OMe) = COc1ccc(C[C@H](N[*:1])C(=O)[*:2])cc1; Trp(5-F) = N[C@@H](Cc1c[nH]c2ccc(F)cc12)C(=O)O; mXylylene = c1cc(C[*:1])cc(C[*:2])c1; Mpa = O=C(O)CCS
# Columns and labels:
# biotinylated PCSK9 [1] = target: T1, biotinylated PCSK9 (UniProt Q8NBP7 31-692, limits assumed, biotinylated (site not stated)); test: given in the description of the Alexa FRET Standard assay; method not stated
# T1 construct: also called europium-labeled PCSK9
# biotinylated PCSK9 [2] = target: T1, biotinylated PCSK9; test: given in the description of the Alexa FRET Plus assay; method not stated
# T1 sequence (Q8NBP7 31-692 limits assumed): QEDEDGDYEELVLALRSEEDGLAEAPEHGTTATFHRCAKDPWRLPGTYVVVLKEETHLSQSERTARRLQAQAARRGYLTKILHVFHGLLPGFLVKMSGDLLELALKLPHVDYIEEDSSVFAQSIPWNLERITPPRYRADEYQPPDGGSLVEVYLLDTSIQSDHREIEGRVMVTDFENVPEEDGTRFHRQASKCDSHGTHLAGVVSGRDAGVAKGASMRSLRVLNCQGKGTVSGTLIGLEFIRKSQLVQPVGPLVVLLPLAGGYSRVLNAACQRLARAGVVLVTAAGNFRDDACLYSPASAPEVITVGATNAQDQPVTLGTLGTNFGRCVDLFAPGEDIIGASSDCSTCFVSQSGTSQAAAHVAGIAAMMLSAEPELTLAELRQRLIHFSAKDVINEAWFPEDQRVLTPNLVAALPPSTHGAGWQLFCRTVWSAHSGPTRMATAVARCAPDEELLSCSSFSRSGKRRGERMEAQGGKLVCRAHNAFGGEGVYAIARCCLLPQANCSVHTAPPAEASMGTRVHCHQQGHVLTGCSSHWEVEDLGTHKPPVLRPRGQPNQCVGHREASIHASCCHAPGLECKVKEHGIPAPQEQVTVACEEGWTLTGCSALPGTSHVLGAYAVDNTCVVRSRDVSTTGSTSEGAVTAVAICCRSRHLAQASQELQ
Binder,Kd (biotinylated PCSK9 [1]) [nM],Kd (biotinylated PCSK9 [2]) [nM]
"[Mpa]K(ALEXAFLUOR 647)G[Trp(5-F)][Trp(5-F)]DHY[2‑methylproline]C-NH2 (linker N-10 via mXylylene, also called AlexaFluor647 (AF) tagged cyclic peptide; AF cyclic peptide) [Reagent A]",83,
"[Mpa]K(ALEXAFLUOR 647)[dA][Trp(5-F)][Trp(5-F)]DH[Tyr(OMe)][2‑methylproline]C-NH2 (linker N-10 via mXylylene, also called AlexaFluor647 (AF) tagged cyclic peptide; AF cyclic peptide) [Reagent B]",,35
